# Test results taken from US7125658B2, “Small protein that interacts with a ribonucleotide reductase subunit and uses thereof” (The Trustees of Columbia University in the City of New York, priority 1998, dated 2006).
# B1: Recombinant yeast Sml1 protein (other)
# chain: MQNSQDYFYAQNRCQQQQAPSTLRTVTMAEFRRVPLPPMAEVPMLSTQNSMGSSASASASSLEMWEKDLEERLNSIDHDMNNNKFGSGELKSMFNQGKVEEMDF
# notes: Immobilized on the BIAcore chip in the biosensor experiments; also called YML058W product
# Columns and labels:
# [1] = target: T1, Yeast Rnr2p/Rnr4p heterodimer (yeast (Saccharomyces cerevisiae), UniProt P09938 1-399; P49723 1-345); test: BIAcore, immobilized Sml1p
# T1 construct: Coexpressed and purified as a heterodimer; also called R2/R4 heterodimer
# T1 sequence (looked up) 1: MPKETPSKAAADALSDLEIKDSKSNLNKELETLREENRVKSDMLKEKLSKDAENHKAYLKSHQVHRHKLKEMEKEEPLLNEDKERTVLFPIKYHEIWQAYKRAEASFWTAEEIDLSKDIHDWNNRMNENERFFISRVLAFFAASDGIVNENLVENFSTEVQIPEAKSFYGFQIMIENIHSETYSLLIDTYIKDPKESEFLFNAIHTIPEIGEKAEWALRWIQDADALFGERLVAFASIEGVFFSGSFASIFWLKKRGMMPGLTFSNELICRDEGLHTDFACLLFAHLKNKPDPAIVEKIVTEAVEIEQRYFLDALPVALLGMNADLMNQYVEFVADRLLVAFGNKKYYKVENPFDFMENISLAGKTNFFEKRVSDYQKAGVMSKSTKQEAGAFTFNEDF
# T1 sequence (looked up) 2: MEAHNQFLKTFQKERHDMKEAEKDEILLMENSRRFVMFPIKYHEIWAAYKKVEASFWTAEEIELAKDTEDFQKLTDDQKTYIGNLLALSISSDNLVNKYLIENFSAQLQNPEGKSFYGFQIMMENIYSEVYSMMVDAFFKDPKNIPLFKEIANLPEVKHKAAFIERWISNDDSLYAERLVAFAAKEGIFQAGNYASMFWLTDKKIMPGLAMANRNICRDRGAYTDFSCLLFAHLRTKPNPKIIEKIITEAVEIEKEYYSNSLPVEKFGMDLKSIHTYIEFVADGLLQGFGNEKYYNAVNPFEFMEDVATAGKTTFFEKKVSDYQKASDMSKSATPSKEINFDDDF
# [2] = target: T2, bovine serum albumin (bovine, UniProt P02769 25-607); test: BIAcore, immobilized Sml1p
# T2 construct: Control; also called BSA
# [3] = target: T3, Recombinant yeast Rnr1 protein (large subunit of ribonucleotide reductase) (yeast (Saccharomyces cerevisiae), UniProt P21524 1-888); test: BIAcore SPR, BIAevaluation software, lower curves of FIG. 12A; kinetic fit (BIAevaluation), lower curves of FIG. 12A
# T3 construct: It is in monomer/dimer/tetramer equilibrium depending on dTTP; also called yeast R1 protein
# T3 sequence (looked up): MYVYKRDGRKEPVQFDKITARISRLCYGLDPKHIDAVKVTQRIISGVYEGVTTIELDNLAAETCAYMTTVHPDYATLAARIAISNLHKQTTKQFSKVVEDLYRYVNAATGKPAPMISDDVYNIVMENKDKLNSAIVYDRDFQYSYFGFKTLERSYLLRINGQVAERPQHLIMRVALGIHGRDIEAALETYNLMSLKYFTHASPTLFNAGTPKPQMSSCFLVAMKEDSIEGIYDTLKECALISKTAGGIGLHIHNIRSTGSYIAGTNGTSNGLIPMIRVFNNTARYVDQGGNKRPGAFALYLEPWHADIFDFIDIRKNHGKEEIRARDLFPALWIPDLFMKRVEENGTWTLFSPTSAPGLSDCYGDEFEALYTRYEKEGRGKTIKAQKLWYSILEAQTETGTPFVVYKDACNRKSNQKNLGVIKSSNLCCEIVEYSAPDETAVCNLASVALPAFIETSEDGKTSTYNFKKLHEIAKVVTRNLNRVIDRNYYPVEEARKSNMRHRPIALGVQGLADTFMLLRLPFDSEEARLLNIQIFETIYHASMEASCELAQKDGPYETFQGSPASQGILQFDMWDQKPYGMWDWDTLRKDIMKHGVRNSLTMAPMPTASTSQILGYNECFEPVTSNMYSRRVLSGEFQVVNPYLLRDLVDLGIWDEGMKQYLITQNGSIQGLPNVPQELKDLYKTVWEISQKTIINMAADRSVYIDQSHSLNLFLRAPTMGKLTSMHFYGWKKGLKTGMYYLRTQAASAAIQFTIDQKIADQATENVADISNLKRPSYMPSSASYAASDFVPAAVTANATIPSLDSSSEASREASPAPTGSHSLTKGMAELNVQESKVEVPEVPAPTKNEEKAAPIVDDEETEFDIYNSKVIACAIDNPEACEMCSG
# Description: (§1) In this figure, the bulk effect response of around 60 RU has been subtracted.
# (§2) BIAcore biosensor analysis. The interaction between Sml1p and either yeast Rnr1p or mouse R1 protein was studied by biosensor analysis using the BIAcore method (Biacore AB). The Sml1 protein was prepared in 10 mM sodium acetate, pH 5.2, at a concentration of 0.44 mg/ml; it was then immobilized on the dextran layer of the sensor chip as described previously for the mouse R2 protein (17). The ligand proteins were equilibrated with running buffer (10 mM Hepes-KOH, pH 7.4, 200 mM potassium acetate, 1 mM EDTA, 5 mM magnesium acetate and 0.05% Surfactant P20 (BIAcore). The interactions were studied at a constant temperature of 22° C. and a constant flow of 5 μl/min. Kinetics for the interaction of Sml1p with yeast Rnr1p was determined by allowing the immobilized Sml1p to interact with increasing concentrations of Rnr1p (18). The resonance unit (RU) is proportional to the mass, and 1 RU corresponds to a surface concentration of 1 pg of protein/mm² of the 100 nm thick dextran layer (19).
# (§3) In control experiments, where the same series of Rnr1p solutions passed a sensor chip without immobilized Sml1p, a "bulk effect" gave a response of only about 60 RU. […] Calculating the equilibrium dissociation constant from these rate constants gave a K_0 of about 0.25 µM, which is close to the directly determined K_0.
# [4] = target: T3, Recombinant yeast Rnr1 protein (large …); test: BIAcore SPR, Sml1p immobilized, Rnr1p injected (0.1-2.5 µM); equilibrium response fitted to one site binding model; equilibrium response fit (GraphPad Prism), directly determined
# Description: as §1, §2, §3
# T2 sequence (P02769 25-607 limits assumed): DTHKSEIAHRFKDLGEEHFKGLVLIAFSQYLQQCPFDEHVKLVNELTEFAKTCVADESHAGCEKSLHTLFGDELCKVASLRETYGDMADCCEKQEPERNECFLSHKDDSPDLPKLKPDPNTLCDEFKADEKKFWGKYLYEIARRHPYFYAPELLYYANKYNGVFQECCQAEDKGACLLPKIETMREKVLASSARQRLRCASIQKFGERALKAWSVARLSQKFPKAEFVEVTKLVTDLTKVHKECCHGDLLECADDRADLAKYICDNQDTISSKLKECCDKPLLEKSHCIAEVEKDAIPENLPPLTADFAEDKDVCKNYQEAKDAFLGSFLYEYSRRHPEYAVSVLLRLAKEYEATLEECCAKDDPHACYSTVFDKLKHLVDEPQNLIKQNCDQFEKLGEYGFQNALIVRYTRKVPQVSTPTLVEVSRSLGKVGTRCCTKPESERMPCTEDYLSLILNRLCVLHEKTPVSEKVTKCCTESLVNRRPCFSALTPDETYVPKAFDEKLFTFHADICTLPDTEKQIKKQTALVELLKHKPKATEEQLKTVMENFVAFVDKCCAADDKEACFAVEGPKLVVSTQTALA
binder,measurement,setting,value
B1,binding result,[1],no binding (tested: 0.1 mg/ml)
same,binding result,[2],no binding (tested: 0.1 mg/ml)
same,koff,[3],0.04 s⁻¹
same,kon,[3],~153000 M⁻¹ s⁻¹
same,Kd,[4],410 nM
